Patent US20250320281A1

How the values were obtained:
Test in all cases: cell-based or functional assay
[1] = biological target: HIV-1 envelope glycoprotein (Env) of isolate MGRM-A-007, clade A (HIV-1)
[2] = biological target: HIV-1 envelope glycoprotein (Env) of isolate 92UG031, clade A (HIV-1)
[3] = biological target: HIV-1 Env of isolate MGRM-D-018 (clade D), on pseudovirus (HIV-1)
[4] = biological target: HIV-1 Env of pseudovirus MGRM-AE-002 (clade CRF01_AE) (HIV-1)
[5] = biological target: HIV-1 93IN905 Env (pseudovirus, clade C) (HIV-1)
[6] = biological target: HIV-1 Env of pseudovirus MGRM-G-017 (HIV-1, clade G isolate MGRM-G-017)
[7] = biological target: HIV-1 Env of isolate 93MW959 (clade C) (HIV-1 isolate 93MW959)
[8] = biological target: HIV-1 Env of isolate MGRM-D-024 (clade D pseudovirus) (HIV-1)
[9] = biological target: HIV-1 Env of pseudovirus MGRM-Chronic-B-012 (HIV-1)
[10] = biological target: HIV-1 Env of isolate APV_17, clade B, on pseudovirus (HIV-1)
[11] = biological target: HIV-1 Env of pseudovirus MGRM-F1-022 (HIV-1)
[12] = biological target: HIV-1 Env of isolate 6535.3 (Acute), clade B, on pseudovirus (HIV-1)
[13] = biological target: HIV-1 Env of isolate MGRM-G-011 (HIV-1)
[14] = biological target: HIV-1 Env of pseudovirus MGRM-F1-018 (HIV-1)
[15] = biological target: HIV-1 Env of isolate APV_13 (subtype B pseudovirus) (HIV-1)
[16] = biological target: HIV-1 Env of isolate JR-CSF (subtype B pseudovirus) (HIV-1) (UniProt P20871)
[17] = biological target: HIV-1 Env of isolate MGRM-AE-008 (HIV-1)
[18] = biological target: HIV-1 Env of isolate MGRM-F1-021 (HIV-1)
[19] = biological target: HIV-1 Env of isolate MGRM-Chronic-B-001 (subtype B pseudovirus) (HIV-1)
[20] = biological target: HIV-1 Env of isolate TRO.11 (subtype B pseudovirus) (HIV-1)
[21] = biological target: HIV-1 Env of isolate 92UG005 (clade D), on pseudovirus (HIV-1)
[22] = biological target: HIV-1 Env of isolate 92UG024 (pseudovirus) (HIV-1)
[23] = biological target: HIV-1 Env of isolate MGRM-D-014 (pseudovirus) (HIV-1)
[24] = biological target: HIV-1 Env of isolate 92UG001 (pseudovirus) (HIV-1)
[25] = biological target: HIV-1 Env of isolate MGRM-Chronic-B-023 (subtype B pseudovirus) (HIV-1)
[26] = biological target: HIV-1 Env of isolate MGRM-Chronic-B-011 (subtype B pseudovirus) (HIV-1)
[27] = biological target: HIV-1 APV17 Env (pseudovirus, clade B) (HIV-1)
[28] = biological target: HIV-1 JRFL Env (pseudovirus) (HIV-1)
[29] = biological target: HIV-1 Env of pseudovirus isolate MGRM-G-024 (HIV-1)
[30] = biological target: HIV-1 Env of isolate MGRM-F1-014 (HIV-1)
[31] = biological target: HIV-1 Env of isolate JR-CSF (pseudovirus) (HIV-1) (UniProt P20871)
[32] = biological target: HIV-1 Env of isolate CMU02 (subtype AE) (HIV-1)
[33] = biological target: HIV-1 Env of isolate SC422661.8 (subtype B) (HIV-1)
[34] = biological target: HIV-1 Env of isolate MG RM-D-001 (HIV-1)
[35] = biological target: HIV-1 Env of isolate 92WR024 (HIV-1)
[36] = biological target: HIV-1 Env of isolate MGRM-C-001 (subtype C) (HIV-1)
[37] = biological target: HIV-1 Env of isolate MGRM-Chronic-B-023 (subtype B) (HIV-1)
[38] = biological target: HIV-1 Env of isolate MGRM-C-005 (subtype C) (HIV-1)
[39] = biological target: HIV-1 Env of isolate MGRM-AG-005 (subtype AG) (HIV-1)
[40] = biological target: HIV-1 Env of isolate MG RM-D-003 (HIV-1)
[41] = biological target: HIV-1 envelope glycoprotein (Env) of isolate MGRM-C-023 (HIV-1)
[42] = biological target: HIV-1 Env of isolate MGRM-Chronic-B-002 (subtype B) (HIV-1)

4970_K22 (PGT-144) (antibody), sequence (VH): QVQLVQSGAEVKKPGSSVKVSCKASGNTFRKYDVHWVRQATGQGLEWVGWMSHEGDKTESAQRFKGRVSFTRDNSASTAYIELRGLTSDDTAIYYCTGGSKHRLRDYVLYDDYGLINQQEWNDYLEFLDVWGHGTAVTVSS
4970_K22 (PGT-144) (antibody), sequence (VL): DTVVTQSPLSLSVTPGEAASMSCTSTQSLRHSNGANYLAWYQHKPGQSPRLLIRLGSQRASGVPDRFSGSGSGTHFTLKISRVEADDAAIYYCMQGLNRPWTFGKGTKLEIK
4993_K13 (PGT-141) (antibody), sequence (VH): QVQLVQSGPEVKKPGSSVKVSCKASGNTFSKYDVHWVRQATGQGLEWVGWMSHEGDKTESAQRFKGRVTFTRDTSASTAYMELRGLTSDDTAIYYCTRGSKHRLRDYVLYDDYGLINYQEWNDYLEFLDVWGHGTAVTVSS
4993_K13 (PGT-141) (antibody), sequence (VL): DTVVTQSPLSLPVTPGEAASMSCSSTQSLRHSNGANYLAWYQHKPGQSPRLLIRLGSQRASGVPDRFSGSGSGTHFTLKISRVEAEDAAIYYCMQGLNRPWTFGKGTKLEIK
4980_N08 (PGT-143) (antibody), sequence (VH): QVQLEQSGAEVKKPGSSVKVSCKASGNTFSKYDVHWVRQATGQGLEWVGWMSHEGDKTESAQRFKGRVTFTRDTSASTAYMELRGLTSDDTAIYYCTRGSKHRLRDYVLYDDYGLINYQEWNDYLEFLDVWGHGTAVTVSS
4980_N08 (PGT-143) (antibody), sequence (VL): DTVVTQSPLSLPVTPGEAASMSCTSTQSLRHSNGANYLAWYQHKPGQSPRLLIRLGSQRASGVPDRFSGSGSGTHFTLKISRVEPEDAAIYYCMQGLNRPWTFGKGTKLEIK
4995_E20 (PGT-142) (antibody), sequence (VH): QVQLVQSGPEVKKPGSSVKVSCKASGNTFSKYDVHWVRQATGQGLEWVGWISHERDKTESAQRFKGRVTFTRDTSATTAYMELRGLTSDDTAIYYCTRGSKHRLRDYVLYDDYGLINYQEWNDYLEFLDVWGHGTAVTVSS

| Substance | IC50, pseudovirus neutralization [3] [µg/mL] | IC50 neutralization [5] [µg/mL] | IC50 (µg/mL), pseudovirus neutralization [13] [µg/mL] | IC50 (µg/mL), pseudovirus neutralization [15] [µg/mL] | IC50 (µg/mL), pseudovirus neutralization [16] [µg/mL] | IC50 [17] [µg/mL] | IC50 (µg/mL), pseudovirus neutralization [18] [µg/mL] | IC50 (µg/mL), pseudovirus neutralization [19] [µg/mL] | IC50 (µg/mL), pseudovirus neutralization [20] [µg/mL] | IC50, pseudovirus neutralization [21] [µg/mL] | IC50, pseudovirus neutralization [22] [µg/mL] | IC50, pseudovirus neutralization [23] [µg/mL] | IC50, pseudovirus neutralization [24] [µg/mL] | IC50 (µg/mL), pseudovirus neutralization [25] [µg/mL] | IC50 (µg/mL), pseudovirus neutralization [26] [µg/mL] | IC50 (µg/mL), pseudovirus neutralization [29] [µg/mL] | IC50 (µg/mL), pseudovirus neutralization [30] [µg/mL] | Primary Neutralization Index (B cell culture supernatant) [31] | IC50 (µg/mL), pseudovirus neutralization [32] [µg/mL] | further results |
| --- | --- | --- | --- | --- | --- | --- | --- | --- | --- | --- | --- | --- | --- | --- | --- | --- | --- | --- | --- | --- |
| 1496_C09 (PG9) (TCN-109) (antibody) | 0.0444 | 0.048 | 0.335 |  |  |  |  |  |  |  |  |  |  |  |  |  |  |  |  | IC50 (µg/ml), pseudovirus neutralization [1]: 0.37 µg/mL; IC50 (µg/ml), pseudovirus neutralization [2]: 3.08 µg/mL; IC50 [4]: 0.04 µg/mL; IC50 (µg/ml), pseudovirus neutralization [6]: 0.03 µg/mL; IC50 (µg/ml), pseudovirus neutralization [7]: 0.04 µg/mL; IC50 (µg/ml), pseudovirus neutralization [8]: 0.03 µg/mL; IC50 (µg/ml), pseudovirus neutralization [9]: 0.91 µg/mL; IC50 (µg/ml), pseudovirus neutralization [10]: 14.6 µg/mL; IC50 (µg/ml), pseudovirus neutralization [11]: 0.06 µg/mL; IC50 (µg/ml), pseudovirus neutralization [12]: 0.22 µg/mL; IC50 (µg/ml), pseudovirus neutralization [14]: 0.03 µg/mL |
| 4838_L06 (PGT-121) (antibody) |  |  |  | 0.251 | 0.027 | > 50 | 0.099 | 0.102 | 0.008 | > 10 | > 50 | 0.009 | > 50 | 0.005 | > 50 |  |  |  |  |  |
| 4858_P08 (PGT-123) (antibody) | 0.0047 | 0.0071 |  | 0.138 | 0.046 | > 50 | 0.307 | 0.15 | 0.008 | 2.49 | > 50 | 0.009 | > 50 | 0.055 | > 50 | 0.032 | 0.111 | 1.6 |  | IC50 neutralization [27]: 0.18 µg/mL; neutralization IC50 (pseudovirus) [28]: 0.0283 µg/mL |
| 4877_D15 (PGT-122) (antibody) | 0.0115 | 0.0138 |  | 0.778 | 0.057 | > 50 | 2.3 | 0.138 | 0.011 | > 10 | > 50 | 0.012 | > 50 | 0.01 | > 50 | 0.033 | 0.195 |  |  | IC50 neutralization [27]: 0.522 µg/mL; neutralization IC50 (pseudovirus) [28]: 0.0471 µg/mL |
| 4970_K22 (PGT-144) (antibody) |  |  | 1.58 |  |  |  |  |  |  |  |  |  |  |  |  |  |  |  | > 50 | IC50 (neutralizing activity, pseudovirus) [28]: > 10 µg/mL |
| 4980_N08 (PGT-143) (antibody) |  |  | 0.074 |  |  |  |  |  |  |  |  |  |  |  |  |  |  |  | > 50 | IC50 (neutralizing activity, pseudovirus) [28]: > 10 µg/mL |
| 4993_K13 (PGT-141) (antibody) |  |  | 0.086 |  |  |  |  |  |  |  |  |  |  |  |  |  |  |  | > 50 | IC50 (neutralizing activity, pseudovirus) [28]: > 10 µg/mL |
| 4995_E20 (PGT-142) (antibody) |  |  | 0.046 |  |  |  |  |  |  |  |  |  |  |  |  |  |  |  | > 50 | IC50 (neutralizing activity, pseudovirus) [28]: > 10 µg/mL |
| 5114_A19 (PGT-128) (antibody) |  |  |  |  |  |  |  |  |  |  |  |  |  |  |  | 0.095 |  | 77.5 | > 50 | IC50 neutralization [33]: 1.58 µg/mL; IC50 (µg/mL), pseudovirus neutralization [34]: 0.138 µg/mL; IC50 [35]: > 50 µg/mL; IC50 neutralization [36]: > 50 µg/mL; IC50 neutralization [37]: > 50 µg/mL; IC50 neutralization [38]: 0.03 µg/mL; IC50 (µg/mL), pseudovirus neutralization [39]: 0.037 µg/mL; IC50 (µg/mL), pseudovirus neutralization [40]: 0.019 µg/mL; IC50 (µg/mL), pseudovirus neutralization [41]: 0.026 µg/mL; IC50 neutralization [42]: 0.036 µg/mL; Polyclonal Transfectant Neutralization Index [31]: 136 |
| 5123_A06 (PGT-125) (antibody) | 0.0382 | 0.0137 |  | 0.007 | 0.004 | > 50 | > 50 | > 50 | 0.111 | > 10 | > 50 | > 50 | > 50 | > 50 | 3.23 | > 50 | > 50 | 1730 |  | IC50 neutralization [27]: 7.31 µg/mL; neutralization IC50 (pseudovirus) [28]: 0.0156 µg/mL; Polyclonal Transfectant Neutralization Index [31]: 119 |
| 5136_H01 (PGT-131) (antibody) |  |  |  |  |  |  |  |  |  |  |  |  |  |  |  | 10.7 |  | 6.2 | > 50 | IC50 neutralization [33]: > 50 µg/mL; IC50 (µg/mL), pseudovirus neutralization [34]: > 50 µg/mL; IC50 [35]: > 50 µg/mL; IC50 neutralization [36]: > 50 µg/mL; IC50 neutralization [37]: > 50 µg/mL; IC50 neutralization [38]: 1.36 µg/mL; IC50 (µg/mL), pseudovirus neutralization [39]: 1.04 µg/mL; IC50 (µg/mL), pseudovirus neutralization [40]: 19.6 µg/mL; IC50 (µg/mL), pseudovirus neutralization [41]: 0.143 µg/mL; IC50 neutralization [42]: > 50 µg/mL |
| 5141_B17 (PGT-126) (antibody) | 0.0093 | 0.0194 |  | 0.012 | 0.008 | > 50 | > 50 | > 50 | 0.041 | 0.0181 | > 50 | 0.03 | > 50 | > 50 | 0.108 | > 50 | > 50 | 1410 |  | IC50 neutralization [27]: 0.501 µg/mL; neutralization IC50 (pseudovirus) [28]: 0.014 µg/mL; Polyclonal Transfectant Neutralization Index [31]: 102 |
| 5145_B14 (PGT-127) (antibody) |  |  |  | 0.026 | 0.018 | > 50 | > 50 | > 50 | 0.079 |  | > 50 | 0.393 | > 50 | > 50 | 0.297 | > 50 | > 50 | 31.1 |  | Polyclonal Transfectant Neutralization Index [31]: 1.61 |
| PGV04 (antibody) |  |  | 0.78 |  |  |  |  |  |  |  |  |  |  |  |  |  |  |  |  | IC50 (µg/mL), pseudovirus neutralization [21]: 0.44 µg/mL |
| VRC01 (antibody) |  |  | 0.065 |  |  |  |  |  |  |  |  |  |  |  |  |  |  |  | 0.515 | IC50 [18]: 0.039 µg/mL; IC50 [30]: 0.056 µg/mL |
